Measurements from the DeepSol protein solubility set.

Test: soluble on expression in E. coli; label from the status in PepcDB or PDB records

Soluble on expression in E. coli, not soluble:
MGSDKIHHHHHHMKDTNRTHSADAATVEEALAADNHQGIVDSEGATALAMQNTLLTPRFYTTDFDEMDSLDVSSVREDWDTLIAQMKSDPNKGHFKKNEDWDSVDWDGMEPALKREFIDFLVSSCTAEFSGCVLYKEMKRRGNNEDIVTLFQLMARDEARHAGFINDALREAGIAVNLGFLTQKKKYTYFRPKFIYYATYLSEKIGYARYITIFRHLEANPEHRFHPIFKWFREWCNDEFSHGEAFALIMKSDPKFTQKWQNKLWIKFFLTAVYSTMYVRDHQRPVFHAALGVDPDWYAHEVFTKTSEITKQIFPITLDIENPRWQRGLEAMQRANVDLADAKANGKLFKRIGASIRAGAAFVNLFTIPANKHDAPASVRLEPAY
MGSDKIHHHHHHMKEAGILFEELVSIMEKLRSPEGCEWDRKQTHESLKPYLIEECYELIEAIDEKNDDMMKEELGDVLLQVVFHAQIARERGAFTIEDVIRTLNEKLIRRHPHVFGDSPGYSYKQWEDIKAQEKGKKKSSRIGEINPLVPALSMARRIQENASQVGFDWKDPEGVYEKIEEELKELKEAKDPRELEEEFGDLLFSIVNLSRFLNVDPESALRKATRKFVERFKKMEELIEKDGLVLEELPIEKLDEYWEKAKGGDET
MGSDKIHHHHHHMKEQNNIPTSKVERATKFVQTGAKIGGNYIKHYAKKAFNPELTKEQLHEDNSKDVYETLSQLKGSALKVAQMLSQDKNMLPQAYVDKFTMAQYSAPPLSYPLVVKTFQKYFGKSPESMFDTFERNASNAASIGQVHKATKDGKVFAVKIQYPGVAESVSSDLKLVKPFALRLMNMKEKDLDMYMDEVESKLIEETDYELELRRSNEISTQCAHITGLVFPAYYPEYSSKRILTMDWLEGLHMKEFLATNPSQEIRNQIGQLLWDFYDFQMHQLRTVHADPHPGNFLMRSNGSLGVIDFGCVKEIPEEFYTEYFKLLNKEVIEDKTELLKTFERLNFFDAEDTALQREIFFDLFCEMTHLLGLPFYSETFDFSDDSYFKRIYDFGEHISNVKEIKDARQARGSRHGIYINRTYFGLYNLLNQLGANVRTKSYGEVAIEV
MGSDKIHHHHHHMKFKIHSDITYQVMSPTTFIFNVHALRTESQHILDESLIVTPPIEIEEFSYNSGTSRFVRLKATENTTFSMSYTATVDTQYKVIDQRQELETVPVVDLDGDIIPFLFPSRYCQSDKLQKLAYKEFGKIENVYSKVLAITDWIYNNVEYISGSTNSQTSAFDTITERAGVCRDFAHLGIALCRALSIPARYFTGYAFKLNPPDFHACFEAYIGGNWIIFDATRLVPLNGLVKIATGRDAADAAVASIFGNASSTNMHVECASLDTDFTPFWYDKNSLKGLSFQ
MGSDKIHHHHHHMKIALGPISYCWEKDKVYTFYEKAAQSQVHSVYLGETVCSRRREVKLADYLAIARQLNAAGKEVILSTMALIEAQSEIGELKRCVDNGEFIIEANDMAAVHYASEAKLPFICGPSINNYNRASLDILHKLGMVRFVMPYELSRDWLTKVIETQPEFDIEVMGHGYMPLAHSARCFTAKHFGLRKDNCDTLCKTHPKGMLAQTQENQPLLRLNGIQTQSAAYVDLISEIPNMKALGVSYFRVSPTALSSIELADELCITLTQQQVPQSKHSSESCNGYWFGEAGFNQVSP
MGSDKIHHHHHHMKIDDIDAFVAVIRCQSISHAAESLDLTQPAITRRVQNFEQALGVELFDRNTKPLKPTPMGIQVYQKCLAILREMDSLRELVASDTPPSGLLRLGVPQTIGDVVLLDALKQLRGEFPDLRAQVSTGWGSHLIGKIENGELDAAAALFPAGKIFPDNIVGQSIGKMELVVVCAKGSVPKKPGKLADCYEQGWVLNPDGCGFRAGLQRTLTDQGLSMKVNLETFGTELQLGLVADGMGLGLVPRPLLERSAHREQLVVLPLKDFKPVMDLWLFYPRFLGNLQAPVEAFGALVARSLKPLSAAA
MGSDKIHHHHHHMKIGVFSVLFYDKNFEDMLDYVAESGLDMIEVGTGGNPGDKFCKLDELLENEDKRQAFMKSITDRGLQISGFSCHNNPISPDPIEAKEADETLRKTIRLANLLDVPVVNTFSGIAGSDDTAKKPNWPVTPWPTAYSEIYDYQWNEKLIPYWQDLAEFAKEQDVKIAIELHAGFLVHTPYTMLKLREATNEYIGANLDPSHLWWQGIDPIAAIRILGQANAIHHFHAKDTYINQENVNMYGLTDMQPYGNVATRAWTFRTVGYGHSPYVWADIISQLIINGYDYVLSIEHEDPIMSVEEGFQKACQTLKSVNIYDKPADMWWA
MGSDKIHHHHHHMKIGVFVPIGNNGWLISTHAPQYMPTFELNKAIVQKAEHYHFDFALSMIKLRGFGGKTEFWDHNLESFTLMAGLAAVTSKIQIYATAATLTLPPAIVARMASTIDSISGGRFGVNLVTGWQKPEYDQMGMWPGDDYFASRYDYLTEYVQVLRDLWGTGRSDFKGDYFTMNDCRVSPRPSQPMKVICAGQSDAGMAFSAQHADYNFCFGKGVNTPTAFAPTAARMMQAAEKTGRDVGSYVLFMVIADETDEAARAKWEHYKAGADEEALAWLTEQSQKDTRSGSDTNVRQMADPTSAVNINMGTLVGSYASVARMLDEVASVPGTDGVLLTFDDFLAGIDAFGERIQPLMRCRNHIASVTREVA
MGSDKIHHHHHHMKIIHVIASIDPKHGGLQAVAMRLAAAQAGLGLDVNIVSYGDAAIEAQVKEIGRSIPHFENIHWHLLPPAGRLETLFCFRGRRMLKALLKDASFMHIHGVWEPFLLYASKLARAAGVPYCICPAGMLDHWSLGQRSWKKKIALMLCYRRMLNEAAFLHLLNVDEMAAVETLNFQARNLIIPNGVFAEEFDPLPARGHFRQKIALAHGRRYILFLSRLHIKKGIDILASAFAAICETYVDVDLVVAGPPGGAEGHFMHLVKKLNIRHRVFMVGAIYGKAKLEAMVDADCFCLPSRQEGFSMAITEALACGTPVVITDQCHFPEVGSADAGLIVSVDAAEVAKALASMLGNPARARTMGENGRRLVLEKFTWPAIAHATLEGYRLSALEAAAS
MGSDKIHHHHHHMKILICDDDSSITQSLSLIIKTYFNKKKVNNLDIVTFNDGDSLLSDKSQKDIIFLDIEMPGFDGIYVGNELKKQNDSVIIFIVTSYLEYLDAAMRFHVFRYLSKPIDKQRLFQNLDDALELYYSINQKIAVETKYGVTSVLTCDIVYVEAKGRKVIVHTATADLDSTQTLQFWIEHLPQATFFQSHRSYIVNMAMVTSFDHELIYLCDGQFTAYLTRRKFTEFKRAYLMFMESKR
MGSDKIHHHHHHMKILLLNTSDARGGAAVAAMRLMETLQEAGAEVRMLVLNRNTTNPDIMALHSGRCGKTADKYRFLAERLHIYMCNGRDRSRLFHVSTALIGYDVSCHPWVRWADVIHLHWINQGFLSLRGLERLTRCGKSVVWTMHDMWPVTAICHHARECLRYRTECGACPQISSQKEKDLARLVWNRKSRVISLLRPTLIGCSHWLADLARQSALTDGLRIESIPNPIDTNLFAPGSRSDARRIMDLPTDRILLLFGAVQADDPRKGIYELSQAMKRLRERQPDLSKRIALVVFGSLRDEVRSLFPNYKLISIGYIREPSRMAELYRAADLFVIPSLEENLPNTIMEALSVGTPCVAFRVGGIPEMIVSGSTGYLAAFRDPSDLAEGITKTIALQETSPEAVASACRSFVLRHYSREVVSSRMLQLYRELL
MGSDKIHHHHHHMKILMLCREPRLYSCQRLKQACQDRNIQLDILDPNRMLIKLAVIDAQMQAQLYYQAGEIYDKCRAEPSLLAEYDAVLPRFGVSSTMMGCRVLDYFAAKKVVILNNSTAFRLARDKWSSLQVLAAQHIPIPTSSFAGALFSTAAHISQHRIPLVIKTCSGSQGVGVMLSESKVHSVSLLQTLQQAKVDNLLQDFVVEARGQDIRAFVIGDRVVAAIERNGLENDFRANIHQGGSASVIQLNTAEQQLAVLAAKTIGLDVAGVDLIRSNKGLLVLEVNACPGLDGIEKASKLDIAGLIIDYLLAMKK
MGSDKIHHHHHHMKIQNTEWGYIEWKHTYDENNPKQAMNIYIAVTMPGKKHFNHVHYGQEQMIYILEGEGLYIINGVWKPFYQGMIFYIESGSTHETINTGDREIKELIVSNNVDDVGESEIIDINPNNYLKKTLINYSESTLNLYAAVESIRGQFIDPFKIPLIIYDDSWNIVLKNPYFPLFCFEKCNPMKFPQNCDCMNQKSSNQFVCEYGITIYNIPILYKSNSIGVIRGGYVLLSDLNLDTEHNNLYDIPEGAARSIKRLLKQISKNIINFCSFNDIRKDLQEKEKTIARTYHYGEQLEMNLKVAQDMVTNLRINHHFLFNTLNSMASIALDDGSYDLYSAIIDLSRMFRYTMRSDLRFVELESEILYIKNYLNLQKLRYGDALKVKYLIPEKLYNLSVPFNFIQPIVENAFTHGFRDIDTEKRIEIIARLDSQYAIIEIHNNGTILDGNNIDKIKAGIRSNNGHGLSLIYTKFTSAYGNNFDMDIKSSDNEGTYIMIKIPIENYKEYV
MGSDKIHHHHHHMKITNFEQTGLCEIEGILSIENTENIEVSELREILKCANVSFVLEGINRLQSTLICELKASYVQQSQRYVTLKENSFDLPDLRHEDELKAKELLRKAFELYEEMSRLKEGQFKGRPKAENYLYGIPIEDARYILPLACKTNISMAMNGEKLIDFFYLLNDRHYSEIFSDLKKLVLSKLPEKLSLFLSKLKSNYNRKLIENFYKSAFDKISECDNIVLLNSFEDLDLKVGLGAITSTHDKTPSEVMELWGDNATEKAKGVSERVLGYGHESIAEQARTTFGMMCSMVTYHQQIRHRLSENHREALFNIIQDEKREVVVPSTVKESEFYNRFVELTHEFKKFRKYVLKEYGEEKSLNFLLNCDRIKLVISTNARIDCQMLADRICFNAQWEIRELSTKKLEKLRKLSQVLYVKALPSCVFGKCKEGKFTCGKQMIMKNKFA
MGSDKIHHHHHHMKIVVAKNIGFCFGVERAIRTVEELLDEGKKVVTDGEIVHNKQVMEQLTKKGLKVSSEMTDGEVFVVRAHGIPKDRLEELKKIFPEVVDLTCPIVSQLFKTAQRYAKERKVIVFGKEDHPEMVALRGYAPAIVTKVPFKLEEKKVVFLSQTTSSLEEYKEFVAAMIRMNEFEEAVFLNTICPVTVNREREVEELSKICDLSIVVGGKHSSNTGKLFRIASKHSKTIWIESPDELPADVVKYGTVCVFSGTSTPNSLIENVVRKLKEMEGKRDGTI
MGSDKIHHHHHHMKKEQIIQGPCTIKVLEGEARILGIEIQKNDLLTIPSDKTYTLVYDENTRLETDCKKLLDNLNLRWDEIVEEIINTVGVVLLLGNVDSGKTYLTNLFTNLATSYLKIIDADVGQSTLFLPTFIAELKPMRKTLNLEELGYDTLEFFGDITPSTNPRLHVQKILRLYETTPKERLTVIDTDGWTVGLNSMLHKFELIYTIDPDYIIVFDQKIKDSLPENYRNKAILLKSVNLHKSRSERKANRIAKYERYFKEAKNIKTLSENLLGKQISNILYCAWGEYIQLSDEEPCTDYYIPLNLLKGALLGIIENKKVIGAALLDDLKENEITILSRVNKFTGLVLGYISLNDKFEERRIRFRKCKS
MGSDKIHHHHHHMKKIAIFLPDLRAGGAEKVALLLSNEFVQKGCAVDVILCTAHGEFLSELDTRINVVDLKSPRLRNAFFPLLRYLKAERPDVLLALMWPLTLLAVTAFKFAKLPGRVVVSDHTTFSQAPLLKKKSTRIFFKLSLPMVYSFANARLAVSEGVANDLATLGNIKRSSITVLHNPVSSDTMRFTKEQNEESWQGFSGKKIVAVGALKWEKDYPTLLKAFALLLKKENAYLSIVGQGTLLSELEAIAEQLGIRKQVNFAGFSTMPSAWMASADLLVLSSSCEGFGNVIVESLDVGTAVVSTDCKSGPREILCDGKYGKLVPVGDVDALAQAMVESLNEQHDMDALKLRAAKFSVDKIAKQYLEVFR
